Changes are numbered by the printed parent chain.
T1: Murine CD38 on transiently transfected Expi293 cells (Origene MC208001) (murine, UniProt P56528 1-304)
T1 construct: whole, on cells
T1 sequence (looked up): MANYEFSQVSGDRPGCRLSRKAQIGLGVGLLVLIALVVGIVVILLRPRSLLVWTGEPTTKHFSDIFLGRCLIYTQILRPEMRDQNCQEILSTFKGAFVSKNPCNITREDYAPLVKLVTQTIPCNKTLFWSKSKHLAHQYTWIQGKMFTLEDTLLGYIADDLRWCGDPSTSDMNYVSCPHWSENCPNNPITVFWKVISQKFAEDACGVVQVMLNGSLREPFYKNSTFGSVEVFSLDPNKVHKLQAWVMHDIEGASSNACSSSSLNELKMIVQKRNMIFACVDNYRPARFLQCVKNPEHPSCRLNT

T2: His-tagged mouse CD38 (ACRO Biosystems CD8-M5223) (mouse, UniProt P56528 45-304)
T2 construct: bought protein; used for ELISA coating and as SPR analyte; also called Murine; not shown: His tag
T2 sequence (looked up): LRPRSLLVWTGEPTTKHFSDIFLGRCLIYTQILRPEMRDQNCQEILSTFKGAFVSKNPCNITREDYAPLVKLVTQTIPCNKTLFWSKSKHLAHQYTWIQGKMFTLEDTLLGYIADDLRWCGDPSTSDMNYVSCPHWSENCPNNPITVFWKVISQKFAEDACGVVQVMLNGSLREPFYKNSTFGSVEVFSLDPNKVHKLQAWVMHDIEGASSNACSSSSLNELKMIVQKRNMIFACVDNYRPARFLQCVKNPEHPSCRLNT

B1: 40769p2.2.A9 scFv-Fc (scFv, V domains shown)
VH: EVQLLESGGGLVQPGGSLRLSCTASGITFSRFNMFWVRQAPGKGLEFVASIRDDGSWTYYADSVKGQFTISRDNSKNTLYLQMNSLRAEDTAVYYCAKDYNSKDFIYHYVMDVWGQGTTVTVSS
VL: QSVLTQPPSASGTPGQRVTISCSGRNSNIGNNVVNWYQQLPGTAPKLLIYRNQERPSGVPDRFSGSKSGTSASLAISGLQSEDEADYYCSTWDDSLNGWVFGGGTKLTVL
notes: scFv-Fc
B2: 40769p2.2.A5 scFv-Fc (scFv, V domains shown)
VH: EVQLLESGGGLIQPGGSLRLSCTASGFDFSSYGMHWVRQAPGKGLEWVGIISDTGGTTYYGDSVKGRFTISRDNSKSTLYLQMNSLRAEDTALYYCASYIMDVWGQGTTVTVSS
VL: QSVLTQPPSASGTPGQRVTISCSGSNSNVGDNAVYWYQQLPGTAPKLLFYGTNRRPSGVPDRFSGSKSGTSASLAISGLQSEDEADYYCAAWDDSLNAWVFGGGTKLTVL
notes: scFv-Fc
B3: 40769p2.2.E12 scFv-Fc (scFv, V domains shown)
VH: B2 VH
VL: B2 VL with L40P
notes: scFv-Fc
B4: 40769p2.2.D3 scFv-Fc (scFv, V domains shown)
VH: B2 VH with T54S, G61A, S77N, T108I
VL: B2 VL with D31V, A33S, F49I, T52S, N53G, G65V, D94G, S95G
notes: scFv-Fc
B5: 40596p1.F6 (scFv, V domains shown)
VH: EVQLLESGGGLVQPGGSLRLSCAASGFDFSKNAMSWVRQAPGKGLEYVAGSGWSGSFIFYADSVKGRFTVSRDNSENTLYLQMSSLRAEDTAVYYCAKNPGFGEMDVWGQGTTVTVSS
VL: EIVLTQSPGSLFLSPGERATLTCRASQTIGSNLAWYQQKFGQAPRLLIYGASTRAADIPDRFSGSGSGTEFTLTISSLQSEDFAVYYCQQYNSWPPLTFGGGTKVEIK
B6: 40596p1.E4 (scFv, V domains shown)
VH: B5 VH with K31G, N32S, S51L, F59Y, F68S, V70I, E76K, M83L, S84N, K98R
VL: B5 VL with F12S, T22S, I29V, F40P, A56T
B7: 40596p1.D2 (scFv, V domains shown)
VH: B5 VH with F68S
VL: B5 VL with I2L
B8: 40596p1.A5 (scFv, V domains shown)
VH: B5 VH with K31N, S84N
VL: B5 VL with F12S, T22R, T28S, F40P, R45S, S76T
B9: 40769p1.2.C9 (scFv, V domains shown)
VH: EVQLLESGGGLVQPGGSLRLSCAASGFTFSSHDMNWVRQAPGKGLEWVSTITTTGGTYYTDSVKGRFTISRDNSKNTIYLQMTSLRAEDTAVYYCTKHYSMDVWGQGTTVTVSS
VL: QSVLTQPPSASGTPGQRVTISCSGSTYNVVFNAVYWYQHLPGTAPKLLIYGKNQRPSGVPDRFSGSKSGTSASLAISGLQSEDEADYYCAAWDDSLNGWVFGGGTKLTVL
B10: 40769p1.2.B10 (scFv, V domains shown)
VH: EVQLLESGGGLVQPGGSLRLSCPASGFDFSSYWMTWVRQAPGKGLEWVSTITDSGGRAWYADSVRGRFTISRDNSKNTLYLQMNSLRAEDTAVYYCARDTPKTYYYYAMDVWGQGTTVTV
VL: QSALTQPPSASGTPGQRVTISCSGSSSNIQYSYVSWYQQLPGTAPKLLIYNNVQRPSGVPDRFSGSKSGTSASLAISGLQSEDEADYYCATWDESLLGLWVFGGGTKLTVL
B11: 40769p1.1.B10 (scFv, V domains shown)
VH: B1 VH with Q67R
VL: B1 VL
B12: 40617p1.2.B4 (scFv, V domains shown)
VH: EVQLLESGGGFVQPGGSLRLSCAASGFTFTNYVMNWVRQAPGKGLEWVSSISISGGRYTWYADSVKGRFTISRDNSRNTLYLQMNSLRAEDTAIYYCAREMNTYSFPMDVWGQGTTVTVSS
VL: EIVLTQSPGTLSLSPGERATLNCRASQNVRSDLAWYQQKPGQAPRLLIYDASNRATGIPDRFSGSGSGTDFSLTISRLEPEDFAVYYCQQYYDWPPYTFGGGTKVEIK
B13: 40769p1.1.B12 (scFv, V domains shown)
VH: B2 VH with T54S, G61A, S77N, L79M, T108I
VL: B2 VL with N26S, D31G, A33S, T52N, N53H, A91V
B14: 40617p1.2.A1 (scFv, V domains shown)
VH: EVQLLESGGGLVQPGGSLRLSCAASGFTFSSYWMTWVRQAPGKGLEWVSAISSYGGQYTYYADSVKGRFTISRDNSKDTLYLHMDSLRAEDTAVYYCAKDWDDGMDVWGQGTTVTVSS
VL: EIVMTQSPAVLSVSPGERATLSCRASQSVNIKLAWYQQKPGQAPRLLIYGASTRAAGIPDRFSGSGSGTDFTLTISSLQSDDFAVYYCQQYYDLPPYSFGGGTKVEIK
B15: 40617p1.2.H1 (scFv, V domains shown)
VH: B14 VH with S30T, S31N, Q57N, T59M, K77E, D78N, H83Q, D85N
VL: B14 VL with S28T, N30G, I31S, A51V, D81E
B16: 40769p2.2.H8 IgG (antibody, V domains shown)
VH: EVQLLESGGGLVQSGGSLRLSCAASGFNFNSHDMNWVRQAPGKGLEWVSSISADRGRTYYADSVKGRFTIFRDDSKKILYLQMNSLRAEDTAVYYCTKYYNMDVWGQGTTVTVSS
VL: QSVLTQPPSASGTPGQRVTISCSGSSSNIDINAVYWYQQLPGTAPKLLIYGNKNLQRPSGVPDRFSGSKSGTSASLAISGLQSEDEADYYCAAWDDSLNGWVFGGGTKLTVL
notes: IgG
B17: 40769p2.2.A9 IgG (antibody, V domains shown)
VH: B1 VH
VL: B1 VL
notes: IgG

molecular target: T1, Murine CD38 on transiently transfected …; assay: flow cytometry, 10 ug/ml scFv-Fc, transfected Expi293 cells

Q: With B1 as the binder, how does the FACS percent gated read?
A: 1.57%

Q: B2 was tested. Which FACS percent gated did it give?
A: 35.5%

Q: For B3, which FACS percent gated is on record?
A: 35.9%

Q: How did the FACS percent gated turn out when B4 was run?
A: 13.1%

molecular target: T3, Human CD38 on transiently transfected Expi293 cells (Origene SC321273) (human, UniProt P28907 1-300); assay: as above
T3 construct: whole, on cells

Q: For B1, which FACS percent gated is on record?
A: 91.2%

Q: Which FACS percent gated does the source give for B2 here?
A: 90.5%

Q: B3 was tested. Which FACS percent gated did it give?
A: 91.6%

Q: With B4 as the binder, how does the FACS percent gated read?
A: 83.5%

molecular target: T2, His-tagged mouse CD38 (ACRO Biosystems …); assay: SPR (second run), His-tagged CD38

Q: Which Kd does the source give for B5 here?
A: 27.2 nM

Q: Which Kd does the source give for B6 here?
A: 930 nM

Q: How did the Kd turn out when B7 was run?
A: 45.2 nM

Q: With B8 as the binder, how does the Kd read?
A: 23.7 nM

Q: With B9 as the binder, how does the Kd read?
A: 55 nM

Q: B10 was tested. Which Kd did it give?
A: 1660 nM

Q: With B11 as the binder, how does the Kd read?
A: 501 nM

Q: How did the Kd turn out when B12 was run?
A: 3.33 nM

Q: B13 was tested. Which Kd did it give?
A: 249 nM

Q: How did the Kd turn out when B14 was run?
A: 141 nM

Q: With B15 as the binder, how does the Kd read?
A: 73 nM

molecular target: T4, His-tagged cynomolgus monkey CD38 (ACRO Biosystems, CD8-05223 [sic]) (cynomolgus monkey, UniProt Q5VAN0 43-301); assay: SPR (second run), His-tagged CD38
T4 construct: bought protein; used for ELISA coating and as SPR analyte; not shown: His tag

Q: For B5, which Kd is on record?
A: 281 nM

Q: Which Kd does the source give for B6 here?
A: 147 nM

Q: B7 was tested. Which Kd did it give?
A: 172 nM

Q: Which Kd does the source give for B8 here?
A: 203 nM

Q: With B9 as the binder, how does the Kd read?
A: 200 nM

Q: Which Kd does the source give for B10 here?
A: 24.3 nM

Q: With B11 as the binder, how does the Kd read?
A: 6030 nM

Q: With B12 as the binder, how does the Kd read?
A: 149 nM

Q: Which Kd does the source give for B13 here?
A: 582 nM

Q: How did the Kd turn out when B14 was run?
A: 102 nM

Q: With B15 as the binder, how does the Kd read?
A: 33.8 nM

molecular target: T5, His-tagged human CD38 (ACRO Biosystems CD8-H5224) (human, UniProt P28907 43-300); assay: SPR (second run), His-tagged CD38
T5 construct: bought protein; used for ELISA coating and as SPR analyte; not shown: His tag

Q: With B5 as the binder, how does the Kd read?
A: 80.4 nM

Q: B6 was tested. Which Kd did it give?
A: 26.4 nM

Q: For B7, which Kd is on record?
A: 54.7 nM

Q: With B8 as the binder, how does the Kd read?
A: 56.9 nM

Q: B9 was tested. Which Kd did it give?
A: 96.2 nM

Q: Which Kd does the source give for B10 here?
A: 2.49 nM

Q: B11 was tested. Which Kd did it give?
A: 29.6 nM

Q: With B12 as the binder, how does the Kd read?
A: 36.1 nM

Q: Which Kd does the source give for B13 here?
A: 91 nM

Q: How did the Kd turn out when B14 was run?
A: 75.3 nM

Q: How did the Kd turn out when B15 was run?
A: 9.71 nM

molecular target: T2, His-tagged mouse CD38 (ACRO Biosystems …); assay: ELISA, 1 ug/ml scFv-Fc, coated His-tagged CD38

Q: B1 was tested. Which ELISA signal did it give?
A: 0.044

Q: With B2 as the binder, how does the ELISA signal read?
A: 1.27

Q: With B3 as the binder, how does the ELISA signal read?
A: 1.26

molecular target: T4, His-tagged cynomolgus monkey CD38 (ACRO …); assay: ELISA, 1 ug/ml scFv-Fc, coated His-tagged CD38

Q: For B1, which ELISA signal is on record?
A: 1.67

Q: How did the ELISA signal turn out when B2 was run?
A: 1.6

Q: For B3, which ELISA signal is on record?
A: 1.59

Q: Which ELISA signal does the source give for B4 here?
A: 1.34

molecular target: T5, His-tagged human CD38 (ACRO Biosystems …); assay: ELISA, 1 ug/ml scFv-Fc, coated His-tagged CD38

Q: How did the ELISA signal turn out when B1 was run?
A: 1.55

Q: With B2 as the binder, how does the ELISA signal read?
A: 1.76

Q: With B3 as the binder, how does the ELISA signal read?
A: 1.67

Q: For B4, which ELISA signal is on record?
A: 1.48

molecular target: T4, His-tagged cynomolgus monkey CD38 (ACRO …); assay: SPR, IgG

Q: B16 was tested. Which Kd did it give?
A: 148 nM

Q: For B17, which Kd is on record?
A: 259 nM

molecular target: T5, His-tagged human CD38 (ACRO Biosystems …); assay: SPR, IgG

Q: How did the Kd turn out when B16 was run?
A: 65.7 nM

Q: B17 was tested. Which Kd did it give?
A: 11.3 nM

Reference: patent US20220306762A1 (CRYSTAL BIOSCIENCE, published 2022)
